Patent US20190309059A1 (SHANGHAI PHARMAEXPLORER, published 2019)

Key:
[1] = target: his-labeled human IL-13 (immunogen A) (human) (UniProt P35225); test: ELISA, biotin-immunogen A; antibody at 0.021 nM
[2] = target: T1, mouse IL-13 (purchased from sino biological) (mouse, UniProt P20109 19-131); test: ELISA, mouse IL-13; antibody at 0.004 nM
T1 chain: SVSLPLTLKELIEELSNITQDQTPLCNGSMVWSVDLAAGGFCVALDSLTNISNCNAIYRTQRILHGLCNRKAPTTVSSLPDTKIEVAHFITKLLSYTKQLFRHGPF

[3] = target: T1, mouse IL-13 (purchased from sino …); test: ELISA, mouse IL-13; antibody at 0.021 nM
[4] = target: T1, mouse IL-13 (purchased from sino …); test: ELISA, mouse IL-13; antibody at 13.33 nM
[5] = target: his-labeled human IL-13 (immunogen A) (human) (UniProt P35225); test: ELISA, biotin-immunogen A; antibody at 0.000 nM
[6] = target: his-labeled human IL-13 (immunogen A) (human) (UniProt P35225); test: FACS blocking, biotin-IL-13 on IL-13Ra2 HEK293 cells; antibody at 166.67 nM
[7] = target: T1, mouse IL-13 (purchased from sino …); test: ELISA, mouse IL-13; antibody at 0.000 nM
[8] = target: T1, mouse IL-13 (purchased from sino …); test: ELISA, mouse IL-13; antibody at 0.11 nM
[9] = target: T1, mouse IL-13 (purchased from sino …); test: ELISA, mouse IL-13; antibody at 0.53 nM
[10] = target: cynomolgus IL-13 (purchased from sino biological) (cynomolgus) (UniProt Q0PW92); test: ELISA, cynomolgus IL-13; antibody at 0.53 nM
[11] = target: his-labeled human IL-13 (immunogen A) (human) (UniProt P35225); test: FACS blocking assay: antibody titrated with biotin-labeled immunogen A (30 ng/mL); blocked partner IL-13Ra1/IL-4Ra on HEK293 clone 4C1; Alexa 488 streptavidin
[12] = target: his-labeled human IL-13 (immunogen A) (human) (UniProt P35225); test: FACS blocking, biotin-IL-13 on IL-13Ra2 HEK293 cells; antibody at 0.002 nM
[13] = target: cynomolgus IL-13 (purchased from sino biological) (cynomolgus) (UniProt Q0PW92); test: ELISA, cynomolgus IL-13; antibody at 0.004 nM
[14] = target: his-labeled human IL-13 (immunogen A) (human) (UniProt P35225); test: ELISA, biotin-immunogen A; antibody at 0.11 nM
[15] = target: his-labeled human IL-13 (immunogen A) (human) (UniProt P35225); test: cell-based or functional assay
[16] = target: his-labeled human IL-13 (immunogen A) (human) (UniProt P35225); test: FACS blocking assay: antibody titrated with biotin-labeled immunogen A (20 ng/mL); blocked partner IL-13Ra2 on HEK293 clone 1A1; Alexa 488 streptavidin
[17] = target: his-labeled human IL-13 (immunogen A) (human) (UniProt P35225); test: ELISA, biotin-immunogen A; antibody at 13.33 nM
[18] = target: his-labeled human IL-13 (immunogen A) (human) (UniProt P35225); test: ELISA, biotin-immunogen A; antibody at 0.001 nM
[19] = target: his-labeled human IL-13 (immunogen A) (human) (UniProt P35225); test: ELISA, biotin-immunogen A; antibody at 2.67 nM
[20] = target: T1, mouse IL-13 (purchased from sino …); test: ELISA, mouse IL-13; antibody at 2.67 nM
[21] = target: his-labeled human IL-13 (immunogen A) (human) (UniProt P35225); test: FACS blocking, biotin-IL-13 on IL-13Ra2 HEK293 cells; antibody at 0.01 nM
[22] = target: his-labeled human IL-13 (immunogen A) (human) (UniProt P35225); test: FACS blocking, biotin-IL-13 on IL-13Ra2 HEK293 cells; antibody at 0.27 nM
[23] = target: his-labeled human IL-13 (immunogen A) (human) (UniProt P35225); test: ELISA, biotin-immunogen A; antibody at 0.004 nM
[24] = target: his-labeled human IL-13 (immunogen A) (human) (UniProt P35225); test: FACS blocking, biotin-IL-13 on IL-13Ra2 HEK293 cells; antibody at 6.67 nM
[25] = target: cynomolgus IL-13 (purchased from sino biological) (cynomolgus) (UniProt Q0PW92); test: ELISA, cynomolgus IL-13; antibody at 0.11 nM
[26] = target: cynomolgus IL-13 (purchased from sino biological) (cynomolgus) (UniProt Q0PW92); test: ELISA, cynomolgus IL-13; antibody at 66.67 nM
[27] = target: cynomolgus IL-13 (purchased from sino biological) (cynomolgus) (UniProt Q0PW92); test: ELISA, cynomolgus IL-13; antibody at 2.67 nM
[28] = target: cynomolgus IL-13 (purchased from sino biological) (cynomolgus) (UniProt Q0PW92); test: ELISA, cynomolgus IL-13; antibody at 13.33 nM
[29] = target: T1, mouse IL-13 (purchased from sino …); test: ELISA, mouse IL-13; antibody at 0.001 nM
[30] = target: his-labeled human IL-13 (immunogen A) (human) (UniProt P35225); test: FACS blocking, biotin-IL-13 on IL-13Ra2 HEK293 cells; antibody at 0.05 nM
[31] = target: his-labeled human IL-13 (immunogen A) (human) (UniProt P35225); test: FACS blocking, biotin-IL-13 on IL-13Ra2 HEK293 cells; antibody at 1.33 nM
[32] = target: his-labeled human IL-13 (immunogen A) (human) (UniProt P35225); test: ELISA: biotin-labeled immunogen A on streptavidin plate, antibody titrated, HRP secondary antibody, OD450
[33] = target: his-labeled human IL-13 (immunogen A) (human) (UniProt P35225); test: FACS blocking, biotin-IL-13 on IL-13Ra2 HEK293 cells; antibody at 33.33 nM
[34] = target: his-labeled human IL-13 (immunogen A) (human) (UniProt P35225); test: ELISA, biotin-immunogen A; antibody at 0.53 nM
[35] = target: cynomolgus IL-13 (purchased from sino biological) (cynomolgus) (UniProt Q0PW92); test: ELISA, cynomolgus IL-13; antibody at 0.021 nM

Chain of cynomolgus IL-13 (purchased from sino biological) (cynomolgus) (Q0PW92 entry or part of it): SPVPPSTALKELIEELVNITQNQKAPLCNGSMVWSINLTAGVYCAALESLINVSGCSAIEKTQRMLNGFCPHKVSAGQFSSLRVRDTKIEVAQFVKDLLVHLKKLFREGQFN

B1: 35E2C3 (lead antibody, mouse hybridoma) (antibody, V domains shown)
VH: EVQLQESGPGLAKPSQTLSLTCSVTGYSITSDYWNWIRKFPGNKLEYMGYISYNGNTYYNPSLKSQISITRDTSKNQLYLQLKSATTEDTATYYCARLAKWTWYFDIWGTGTTVTVSS
VL: DIQMNQSPSSLSASLGDTITITCHASQNINVWLSWYQQKPGSLPKLLIYKASDLHTGVPSRFSGSGSGTGFTLTISSLQPEDIATYYCQQGQSYPYTFGGGTKLEIK
notes: Mouse monoclonal antibody purified from hybridoma supernatant on Protein G
OD450 nm [1]: 0.15 | OD450 nm [2]: 0.06 | OD450 nm [3]: 0.06 | OD450 nm [4]: 0.09 | OD450 nm [5]: 0.05 | mean fluorescence intensity [6]: 28.9 | OD450 nm [7]: 0.07 | OD450 nm [8]: 0.06 | OD450 nm [9]: 0.06 | OD450 nm [10]: 0.21 | IC50 (read off the curve) [11]: 400 pM | mean fluorescence intensity [12]: 76 | OD450 nm [13]: 0.07 | OD450 nm [14]: 0.41 | TARC (pg/mL), A549 cells + IL-13 5 ng/mL + TNFα; antibody at 0.001 nM [15]: 1730 pg/mL | TARC (pg/mL), A549 cells + IL-13 5 ng/mL + TNFα; antibody at 0.004 nM [15]: 1670 pg/mL | TARC (pg/mL), A549 cells + IL-13 5 ng/mL + TNFα; antibody at 0.021 nM [15]: 1620 pg/mL | TARC (pg/mL), A549 cells + IL-13 5 ng/mL + TNFα; antibody at 0.11 nM [15]: 1550 pg/mL | TARC (pg/mL), A549 cells + IL-13 5 ng/mL + TNFα; antibody at 0.5 nM [15]: 1340 pg/mL | TARC (pg/mL), A549 cells + IL-13 5 ng/mL + TNFα; antibody at 2.7 nM [15]: 797 pg/mL | TARC (pg/mL), A549 cells + IL-13 5 ng/mL + TNFα; antibody at 13.3 nM [15]: 278 pg/mL | TARC (pg/mL), A549 cells + IL-13 5 ng/mL + TNFα; antibody at 66.7 nM [15]: 67 pg/mL | IC50 (read off the curve) [16]: 300 pM | OD450 nm [17]: 1.39 | OD450 nm [18]: 0.05 | OD450 nm [19]: 1.31 | OD450 nm [20]: 0.08 | mean fluorescence intensity [21]: 74.3 | mean fluorescence intensity [22]: 53.2 | OD450 nm [23]: 0.07 | mean fluorescence intensity [24]: 35.1 | OD450 nm [25]: 0.11 | OD450 nm [26]: 1.56 | OD450 nm [27]: 0.52 | OD450 nm [28]: 1.13 | OD450 nm [29]: 0.07 | mean fluorescence intensity [30]: 66.6 | mean fluorescence intensity [31]: 38.7 | EC50 (read off the curve) [32]: 300 pM | mean fluorescence intensity [33]: 32.4 | OD450 nm [34]: 0.91 | OD450 nm [35]: 0.07
